Results published in patent publication US20230374148A1, “BINDING MOLECULES THAT MULTIMERISE CD45” (UCB BIOPHARMA SRL, priority 2020, published 2023).

B1: 4133-6294 BYbe: anti-CD45 BYbe (Fab-scFv): 4133 Fab HC-G4S linker-6294 scFv heavy chain paired with 4133 light chain (antibody)
heavy: QEQLVESGGGLVQPEGSLTLTCTASGFSFSGNYYMCWVRQAPGKGLEWIGCLYTGSSGSTYYASWAKGRFTISKTSSTTVTLQMTSLTAADTATYFCARDLGYEIDGYGGLWGQGTLVTVSSGQPKAPSVFPLAPCCGDTPSSTVTLGCLVKGYLPEPVTVTWNSGTLTNGVRTFPSVRQSSGLYSLSSVVSVTSSSQPVTCNVAHPATNTKVDKTVAPSTCSKPGGGGSGGGGSEVQLVESGAELARPGASVKMSCKASGYTFTSYTMHWVKQRPGQCLEWIGYINPSSGYTEYNQKFKDKTTLTADKSSSTAYLQLSSLTSEDSAVYYCARVGDGFYPSWLAYWGQGTLVTVSSGGGGSGGGGSGGGGSGGGGSDIQMTQSPKFLLVSAGDRVTITCKASQSVRNDVAWYQQKPGQSPKLLIFYASKRYTGVPDRFTGSGYGTDFTFTISTVQAEDLAVYFCQQDYSSPTTFGCGTKLEIK
light: AQVLTQTPSPVSAVVGGTVSISCQASQSVYNNNNLSWYQQKPGQPPKLLIYDASKLASGVPSRFKGSGSGTQFTLTISGVQCDDAATYYCLGGYYSSGWYFAFGGGTKVVVKRTPVAPTVLIFPPAADQVATGTVTIVCVANKYFPDVTVTWEVDGTTQTTGIENSKTPQNSADCTYNLSSTLTLTSTQYNSHKEYTCKVTQGTTSVVQSFNRGDC

Columns and labels:
Human whole blood = experiment: T cell count in whole blood at 24 hrs; assay type: cell-based; settings: Fab-KD-Fab or BYbe 100 nM, Campath 10 μg/ml, in comparison with PBS- and NegCtrl BYbe-treated wells
Experimental: Human whole blood (Lithium heparin tubes) was taken from one donor (HTA #031219-06) at UCB Pharma Slough, UK according to approved ethical sample collection protocol.
In a Greiner 96-well non-binding microplate, Fab-X and Fab-Y combination 6294-X/4133-Y was added to PBS to give a Fab-KD-Fab concentration of 2000 nM. Similarly, stocks of 4133-6294 BYbe and NegCtrl BYbe were prepared in PBS at 2000 nM. The microplate was incubated for 1 hr at 37° C., 5% CO2. Following the incubation, Fab-KD-Fab and BYbe reagents were then serially diluted in PBS 1 in 5, seven times to produce to form an 8-point dose curve.
12.5 μl of Fab-KD-Fab or BYbe dilution was transferred into Corning Costar 96-well, cell culture treated, U-shaped-bottom microplate (cat no. 07-200-95) and 237.5 μl of whole blood added to each well. Final well concentrations of Fab-KD-Fab or BYbes were 100-0.00128 nM. Campath (clinical grade, diluted from 30 mg/ml stock to 1 mg/ml in PBS, lot number F1002H29) was used as a positive control at a final concentration of 10 μg/ml. Plates were sealed with a gas permeable adhesive seal and plate lids were replaced. […]
Following the incubation with the antibody cocktail, cells were washed twice as outlined above and buffer aspirated to leave the cells in 20 μl residual buffer. […] Cells were analysed live using the Intellicyt iQue Screener PLUS. […]

CCRF-SB = experiment: Apoptosis of cell lines: CCRF-SB; assay type: cell-based; settings: 21 hrs
Source text: The following cell lines representing various leukaemia's and lymphoma's, as classified by ATCC (www.atcc.org/), were used: Jurkat—acute T-cell leukaemia; CCRF-SB—B-cell acute lymphoblastic leukaemia; MC116—B-cell undifferentiated lymphoma; Raji, Ramos—Burkitt lymphoma (rare form of B-cell non-Hodgkin lymphoma); SU-DHL-4, SU-DHL-5, SU-DHL-8, NU-DUL-1, OCI-Ly3—Diffuse large B-cell lymphoma; THP-1—acute monocytic leukaemia; and Dakiki—B cell nasopharyngeal carcinoma.
Prior to an assay being performed, 1 vial of each of the above cell lines was thawed in a 37° C. water bath and then added to 20 ml complete media (RPMI 1640+2 mM GlutaMAX+1% Pen/Strep, all previous supplied by Invitrogen, +10% Fetal Bovine Serum (FBS), Sigma Aldrich). Cells were spun (500 g, 5 min, at RT) and re-suspended in 20 ml complete media to wash and spun again. Cells were resuspended in 10 ml complete media and then counted using a ChemoMetec NucleoCounter NC-3000. 6×10^6 cells of each cell line were spun (500 g, 5 min, at RT) and re-suspended in 4.8 ml complete media. 1×10^5 cells in 80 μl were then added to each well of a Corning Costar 96-well, cell culture treated, U-shaped-bottom microplate (cat no. 07-200-95). The plate was rested in a 37° C., 5% CO2 incubator for 2 hrs
Stocks of 4133-6294 BYbe and NegCtrl BYbe at 2500 nM in complete media were prepared. In a Greiner 96-well non-binding microplate, both reagents were serially diluted in complete media 1 in 5, seven times to produce to form an 8-point dose curve. […] (final well concentrations 500-0.0064 nM) was added to the cells. Each concentration was produced in triplicate. Camptothecin (cat no. C9911-100MG, Sigma Aldrich) and Staurosporine (cat no. 56942-200UL, Sigma Aldrich) were added as positive controls of apoptosis. Both were diluted in complete media and added to the well to produce a final concentration of 5 μM. Additional positive controls included anti-thymocyte globulin (ATG, indicated by FDA for use in conditioning regimens), Rituximab (anti-CD20, indicated by FDA for Non-Hodgkin Lymphoma and Chronic Lymphocytic Leukaemia) and Campath (anti-CD52, indicated by FDA for B-cell Chronic Lymphocytic Leukaemia). Anti-thymocyte globulin, Rituximab and Campath were added to the wells to produce final concentrations of 200 μg/ml, 500 nM and 200 μg/ml, respectively. […]
Following the incubation, the plates were spun at 500 g, 5 min, RT, the buffer was aspirated with a BioTek ELx405 microplate washer, and the cells were re-suspended in FACS buffer (PBS+1% bovine serum albumin (BSA)+0.1% NaN3+2 mM EDTA, Sigma Aldrich) to wash and then re-spun and buffer was aspirated to leave the cells in 20 μl residual media. […] Cells were analysed using the Bio-Rad ZE5 Cell Analyzer. […]

| Molecule | reduction in T cell numbers (Human whole blood) | Campath mean (%) cell reduction (CCRF-SB; 200 μg/ml) [%] | Bottom (%) level of % cell reduction (CCRF-SB) [%] | Top (%) level of % cell reduction (CCRF-SB) [%] |
| --- | --- | --- | --- | --- |
| Campath: anti-CD52, clinical grade, indicated by FDA for B-cell Chronic Lymphocytic Leukaemia; positive control [reference compound] | roughly 8 fold | 24.86 |  |  |
| B1 | 5 fold |  | 13.95 | 83.40 |
